Measurements from paper PMC7344267.

Biological target: T1, Nt^17 peptide, the seventeen-residue N-terminal region of huntingtin (htt)
T1 chain: MATLEKLMKAFESLKSF
Assay: native MS
Details: remark: other sources report otherwise

normalized collision energy for 50% signal decay of the complex: 20 NCE | stoichiometry N: 4
Binder: MATLEKLMKAFESLKSF [Nt^17 peptide, the seventeen-residue N-terminal region of huntingtin (htt)]
